In the MegaScale stability set (Tsuboyama et al. 2023):

B1: EEHEE_rd3_0130 (parent)
chain: TKIIVNGKTFTAPTEEEAQKIAEKLAKKAGLTVHKKNGTFELK

Variants of: B1
Test: folding stability dG (cDNA display proteolysis); higher = more stable
Details: PBS, room temperature

Variant	folding stability dG [kcal/mol]
TGIIVNGKTFTAPTEEEAQKIAEKLAKKAGLTVHKKNGTFELK [K2G]	-0.359
TVIIVNGKTFTAPTEEEAQKIAEKLAKKAGLTVHKKNGTFELK [K2V]	0.501
TLIIVNGKTFTAPTEEEAQKIAEKLAKKAGLTVHKKNGTFELK [K2L]	0.93
TKIIVNGKTFTAPTEEEAQKIAEKLAKKAGLTVHKKNGTFELQ [K43Q]	0.615
TKIIVNGKTFTAPTEEEAQKIAEKLAKKAGLTVHKKNGTFELI [K43I]	1.33
TKIIVNGKTFTAPTEEEAQRIAEKLAKKAGLTVHKKNGTFELK [K20R]	1.01
TKIIVNGKTFTAPTEEEAQNIAEKLAKKAGLTVHKKNGTFELK [K20N]	0.548
TKIIVNGKTFTAPTEEEAQKIAEKLAKKAGLTVHKKNGMFELK [T39M]	1.14
TKHIVNGKTFTAPTEEEAQKIAEKLAKKAGLTVHKKNGTFELK [I3H]	-0.416
TKIIVNMKTFTAPTEEEAQKIAEKLAKKAGLTVHKKNGTFELK [G7M]	-0.071
TKIIVNCKTFTAPTEEEAQKIAEKLAKKAGLTVHKKNGTFELK [G7C]	0.961
TKIIVNGKTFTAPCEEEAQKIAEKLAKKAGLTVHKKNGTFELK [T14C]	0.682
TKIIVNGKTFTAPTEEEACKIAEKLAKKAGLTVHKKNGTFELK [Q19C]	1.25
TKIIVNGKTFTAPTEEEASKIAEKLAKKAGLTVHKKNGTFELK [Q19S]	0.739
TKIIVNGKEFTAPTEEEAQKIAEKLAKKAGLTVHKKNGTFELK [T9E]	0.17
TKIIVNGKCFTAPTEEEAQKIAEKLAKKAGLTVHKKNGTFELK [T9C]	1.66
TKIIVNGKTFTAPTEEEAQKIAEKLAKKAGLTVHKKNGTWELK [F40W]	0.271
TKIIVNGKTFTAPTEEEMQKIAEKLAKKAGLTVHKKNGTFELK [A18M]	-0.37
TKIIVNGKTFTAPTEEEAQKIAEKLAKKAGNTVHKKNGTFELK [L31N]	-0.814
TKIIVNGKTFTAPTEEEAQKIAEKLAHKAGLTVHKKNGTFELK [K27H]	0.537

Variant	folding stability dG [kcal/mol]
TKIIVNGKTFTAPTEEEAQKIAEKLANKAGLTVHKKNGTFELK [K27N]	0.413
TKIIVNGKTFTAPTWEEAQKIAEKLAKKAGLTVHKKNGTFELK [E15W]	0.965
TKIIVNGKTFTAPTSEEAQKIAEKLAKKAGLTVHKKNGTFELK [E15S]	0.561
TKIIVNGKTFTAPTAEEAQKIAEKLAKKAGLTVHKKNGTFELK [E15A]	0.725
TKIIVGGKTFTAPTEEEAQKIAEKLAKKAGLTVHKKNGTFELK [N6G]	1.02
TKIIVNGKTFTAPTEEEAQKIAEKQAKKAGLTVHKKNGTFELK [L25Q]	-0.482
TKIIINGKTFTAPTEEEAQKIAEKLAKKAGLTVHKKNGTFELK [V5I]	1.13
TKIGVNGKTFTAPTEEEAQKIAEKLAKKAGLTVHKKNGTFELK [I4G]	-0.461
TKIAVNGKTFTAPTEEEAQKIAEKLAKKAGLTVHKKNGTFELK [I4A]	-0.213
TKIIVNGKTFTAPTEEEAQKIAEKLAKIAGLTVHKKNGTFELK [K28I]	0.992
TKIIVNGKTFTAPTEEEAQKIAEKLAKKAGLTVHKRNGTFELK [K36R]	0.78
TKIIVNGKTFTAPTEEEAQKIAEKLAKKAGLTVHKSNGTFELK [K36S]	0.956
TKIIVNGKTFTAPTEEEAQKIAEKLAKKAGLWVHKKNGTFELK [T32W]	-0.409
TKIIVNGKTFTAPTEEEAQKIAEKLAKKAGLAVHKKNGTFELK [T32A]	0.577
TKIIVNGKTFTAPTEEEAQKIAEKLAKKAGLTVHWKNGTFELK [K35W]	1.34
TKIIVNGKTFTAPTEEEAQKIAEKLAKKAGLTVHRKNGTFELK [K35R]	0.798
TKIIVNGKTFTAPTEEEAQKIAEKLAKKAGLTVCKKNGTFELK [H34C]	1.31
TKIIVNGKTFTAPTEEEAQKIAEKLAKKAGLTVYKKNGTFELK [H34Y]	1.14
TKIIVNGKTFTAPTEEEAQKIAEKLAKKAGLTVHKKNDTFELK [G38D]	0.488
TKIIVNGKTFTAPTEEEAQKIAEKLAKKAGLTVHKKNYTFELK [G38Y]	0.009

Variant	folding stability dG [kcal/mol]
TKIIVNGKTFTAVTEEEAQKIAEKLAKKAGLTVHKKNGTFELK [P13V]	0.451
TKIIVNGATFTAPTEEEAQKIAEKLAKKAGLTVHKKNGTFELK [K8A]	0.511
TKIIVNGKTFTAPTEEEAQKIAAKLAKKAGLTVHKKNGTFELK [E23A]	0.74
TKIIVNGKTFTAPTEEEAQKIADKLAKKAGLTVHKKNGTFELK [E23D]	0.78
TKIIVNGKTFTAPTEEEAQKTAEKLAKKAGLTVHKKNGTFELK [I21T]	-0.08
TKIIVNGKTFTAPTEEEAQKIAEKLAKKAGLTQHKKNGTFELK [V33Q]	-0.574
TKIIVNGKTFTAPTEEEAQKIAEKLAKKAGLTCHKKNGTFELK [V33C]	1.13
TKIIVNGKTFTAPTEEEAQKIAEKLAKKAGLTAHKKNGTFELK [V33A]	0.036
TKIIVNGKTFTAPTEEEAQKIAEKLAKKAGLTMHKKNGTFELK [V33M]	0.559
TKIIVNGKTFTAPTEEEAQKIAEKLAKKAGLTVHKKNGTFEWK [L42W]	0.069
TKIIVNGKTFTAPTEEEAQKIAEKLAKKAGLTVHKKNGTFETK [L42T]	0.203
TKIIVNGKTFTAPTEEEAQKIAEKLAKKAGLTVHKKNGTFEPK [L42P]	0.076
TKIIVNGKTFTAPTEEEAQKIAEKLMKKAGLTVHKKNGTFELK [A26M]	-0.151
TKIIVNGKTFTAPTEEEAQKIAEKLSKKAGLTVHKKNGTFELK [A26S]	0.1
TKIIVNGKTFTAPTEEEAQKIAEKLTKKAGLTVHKKNGTFELK [A26T]	-0.552
TKIIVNGKTFTAPTEEEAQKIAEKLDKKAGLTVHKKNGTFELK [A26D]	-0.815
QKIIVNGKTFTAPTEEEAQKIAEKLAKKAGLTVHKKNGTFELK [T1Q]	0.151
TKIIVNGKTFTAPTEEEAQKIAEKLAKKATLTVHKKNGTFELK [G30T]	0.204
TKIIVNGKTFTAPTEEEAQKIAEKLAKKAPLTVHKKNGTFELK [G30P]	-0.624
